Target: in vitro-translated 35S-labeled HPV16 E6 (human papillomavirus type 16, UniProt P03126, 35S-labeled cysteine or methionine)
Assay: GST pull-down of 35S-labeled in vitro-translated HPV-16 E6

## ILVEKDRFVNDYDKDNDGRLDPQELLPWVVPNNQGI (other) [GSTSD7EF5]
  binding result: no binding

— patent publication US5989804, “E6 binding proteins” (New England Medical Center Hospitals, Inc., dated 1999)
